This is an account of results in the supplement of paper PMC12636428.

In this data set the test system is Saccharomyces cerevisiae. Description: transcriptional activation domain activity (GFP:mCherry ratio, weighted mean of sorted bins, harmonized to initial dataset scale) (arbitrary fluorescence ratio units); higher = stronger transcriptional activation. To be noted: beta-estradiol 1 µM; induction time 4 h. A digest of the protocol: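 Barcoded protein tiles fused to an estradiol-inducible synthetic transcription factor were integrated at the yeast URA3 locus, in diploids carrying a GFP reporter. Cultures were diluted 1:5 into SC with 1 uM beta-estradiol, held 4 hours at 30 °C, sorted into 8 bins by GFP:mCherry ratio, and barcodes sequenced. Tiles under 50 reads were discarded. Activation activity is the read-weighted mean of bin median fluorescence, averaged across barcodes, then linearly mapped onto the initial dataset scale.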

Consider “LLLLIWMVTRLVRTYTTIMFRCLGPPDHVAKMHRLLLGLSTCLQLSVYVLITS”, for which the “transcriptional activation domain activity” value came to 47300.

As to “YHALKVYRGLGLLLVNGVTGICLSICVIVVACFGHFHFSPYWVLQWAVMSRIV”, the “transcriptional activation domain activity” value came to 63500.

As for “GDEEREQRKKHKKRKDRGSDDEDRHHKHKHKKDKHREKGTKDSKKHRGNEPSS”, the “transcriptional activation domain activity” value is 64300.

For the sequence “PVKETETAAVPEVTAEPEAEAAKPAEAPKEEKKEEKKEAKSPKVSRRLSQRVE”, the “transcriptional activation domain activity” value came to 58300.

Turning to “MLKLFWTISKVFGPSDLTLQERGHYMELIIALRFIQGWWQDRDLNGFLPLWVR”, the “transcriptional activation domain activity” value worked out at 65000.

Take “NLRLMIVNFRKYGVLICIRCHDYRRQDVVYGLLLYLLVPCHLFVAYLIELAAA”: the “transcriptional activation domain activity” value was found to be 47800.

As to “MIPLQVLSLIDAKNLILLLTKFFSCVALSSCLYWDSCYNLIHGYLVLYKIIYT”, the “transcriptional activation domain activity” value turned out to be 59400.

In the case of “FPTVLVYYLLFAIGRLCTIMLYAALETCLAFMNHFPLFAMMLRLKDPARLPGG”, the “transcriptional activation domain activity” value is 61800.

Regarding “MHTPFLFLPPCPSRTRLLLFFSLILFLLVLVPAPCHAQPWNLGTLFFIFWLAS”, the “transcriptional activation domain activity” value was 52700.

Regarding “MCAASSEGASLSPASSLQRGKACLACRRRKMRCDGARPTCGQCVRGNRVDDCE”, the “transcriptional activation domain activity” value was 21200.

For the sequence “EPAETPAETPAPVEPVVEEKKEETPAPVKETPAPTPNPAAAPAPQQQQPAAAK”, the “transcriptional activation domain activity” value came out at 26400.

Take “ALLNGQCGGANYTGPTVCVCGLNIIQGFMRIRKCSSLYMIVLALKLIFITFFS”: the “transcriptional activation domain activity” value stood at 90200.

Consider “VISTLYHGPQIWVPILVSTGLLAIFAEILPQYFIPRQAISWGYYCWPLIWGCM”, for which the “transcriptional activation domain activity” value was 36700.

Regarding “LNLRRPLAFGGMATLLTYLIVPIYFSGVCYRLRLTLPPFLFLILRVSFELFVL”, the “transcriptional activation domain activity” value was 67800.

As for “GDADEDGNGHGTHCSGTVAGKKYGVAKKANVYAVKVLRSNGSGSMSDVVKGVE”, the “transcriptional activation domain activity” value was 30300.

As for “REGGGEGGGAQDGSSAPKKKRLGRKERIKSKAAGGDTGGEGADGAAASPEGAG”, the “transcriptional activation domain activity” value stood at 39600.

As to “MWTQASVATLPTLPFTGISLSYFPCLFLLFSPDIFIFLFFLLFIYLFIFSFLL”, the “transcriptional activation domain activity” value is 55900.

As for “EDEEETAAARSTSKRTRRGRVLDDSDEEDDEAGTVSPAKAATGAESEGEAGAA”, the “transcriptional activation domain activity” value was determined as 30000.

For “SSGGDSGGDDTTTTTKKSRPRHHHLAHHHLHHLHHLHYLHHFHHHTHQHDDHL”, the “transcriptional activation domain activity” value amounted to 22900.

On to “MSSSEPLTEQTAALSVAEGDADGNVPIGPDGKPLSKSAIKKLQKEKEKAEKAA”, for which the “transcriptional activation domain activity” value amounted to 39500.

On to “MHEYARVALFGTVGVPLRVFISPAFLRALRSFAPHVIHLVDPILLRMQAHIAL”, for which the “transcriptional activation domain activity” value is 48700.

Turning to “ILENKGLNEDLSSHIYEKEAPKFDSDIDISRFGTNDAVIFNNDGWDTSLPIDF”, the “transcriptional activation domain activity” value amounted to 102000.

For “QLQCIPIFGNFVVLILCLKYIYSCNHFGSVTSHHTFHMLAVVLSTFFISLIPV”, the “transcriptional activation domain activity” value worked out at 43100.

Regarding “TPTAQYQQGYHFRHLRYVMCLSVAVLIVGAVSLTIPLPISARIASILRFWEHD”, the “transcriptional activation domain activity” value came out at 44200.

In the case of “PARAHGNRDDERGGGVRGGVPADARATLARRVQPHPLARARARVCAGAAVRGE”, the “transcriptional activation domain activity” value is 48600.

In the case of “MPSFTFAWPDRAYFYSLLVVSLLSAKFLHLFSHLTALPIFLFLLYFPTFVFLD”, the “transcriptional activation domain activity” value turned out to be 71900.

As for “TRDDEEGGEEEEEEEEEEEEDEEDEDPESLPHIHKALEIHYQIHLSPTYSVPV”, the “transcriptional activation domain activity” value was 52700.

For the sequence “EHIEVDLTGIEEVTTGAGLLSRTRTSRHCFLHKTKVLQILDMKCTHDHPSPSS”, the “transcriptional activation domain activity” value was 29800.

Turning to “MCVFHFLPWLLFPSPLISLFFVFFILFSFFVFFFLVPSSCPSFISFFPVSCLF”, the “transcriptional activation domain activity” value was found to be 38000.

Turning to “HELFALYNLLYFRKLLLPRVEVIWSPRLTLCAGICELSKDPKTGKFTRIRLKL”, the “transcriptional activation domain activity” value came out at 47000.

For the sequence “MTNFSVALNVHTQIAYHNAEALRLKCMYNASSLLAKLPPHVLALIFLNHANWF”, the “transcriptional activation domain activity” value came to 36200.

On to “QLTRGNWSDLFFLFIFLWIVLFFFLLHWSWAWLLVFVLSICSSGLLGAILFFF”, for which the “transcriptional activation domain activity” value amounted to 27200.

For the sequence “DAARGGYQSAGGAGTGSDSETNRGRGRGGRGGFRGERGGRGRGRGATPAKTEG”, the “transcriptional activation domain activity” value is 27200.

Turning to “MVRSGILKCELLQNLSTVYPTIYLVLCCYSIVFFFNACLSFLVLFMHFAFLVK”, the “transcriptional activation domain activity” value came out at 52800.

In the case of “RMVYSIRLVFHLYAELLLDRAFFLEWFLSFFAECSLDVLPLAFPIATALWDDL”, the “transcriptional activation domain activity” value amounted to 64600.

Turning to “SLPSTTPAGAPPTDAAKPAGGLFGNTSAQASTGSSGLFGNAAKPATTSASSAQ”, the “transcriptional activation domain activity” value came out at 16100.

With “EGDSDEEGDEDMYQQVDMNDVMDGVLEGMDNMGEERLNRGRARLKIHTGGPGK”, the “transcriptional activation domain activity” value worked out at 37300.

Take “DEVTDWFGASEDIGLEFVEPWTELIEQRYMQCGDGDNNNFENLYNLFVNSNNI”: the “transcriptional activation domain activity” value came out at 137000.

“MEDAGDDATPATKKGKGMKKRKKGEESDGENEKPAKTPKTKLKLTNKTPKEAS”: the “transcriptional activation domain activity” value came to 36600.

Turning to “KDLKDGTRAPGDESERIVVEELDMERVALDRTLGRLWRSWKKRIRSPTEPSFG”, the “transcriptional activation domain activity” value is 34300.

As to “MFCLRSWIPILFFLLRTNASPIYLILFISATYFLNRPCVYCSLLLFILVVALF”, the “transcriptional activation domain activity” value was determined as 50800.

Consider “EFFVLWVVQAIIGSRLEMYWAVLMICVLRCNQSYVSNACREVWLSWIIHGWVQ”, for which the “transcriptional activation domain activity” value worked out at 61500.

For “AYMREMCVCLRDLFEALGCNKLTTLRIMLYNDAYCLGQSPTFRIRYLMSQLEP”, the “transcriptional activation domain activity” value is 49600.

For “ISIAQIEIAILFHISFFIFYFVSISFLLLYFICCILCTYVLLIYSLSFLYLVV”, the “transcriptional activation domain activity” value is 45800.

Take “LIVGGGATGAGTALDAASRGLKVALVERDDFSAGTSSKSTKLVHGGVRYLQKA”: the “transcriptional activation domain activity” value came out at 51800.

In the case of “PRVVELQKEVIAYNKRLLALNIRDHQVQYAKLNIFYCFGLFWYRVLKLLVLSA”, the “transcriptional activation domain activity” value was determined as 38500.

For “IRYWTWMVWVIIIGSTLAFHVWIAIYSQFDVFTFESELFYLYTTLNFWTCIVF”, the “transcriptional activation domain activity” value is 57100.

Regarding “ERLPVDLAVLCTIVEKLFGLAIMTARHRDLGSLHGVLLPRTWILSLWGDFLRF”, the “transcriptional activation domain activity” value came out at 71700.

Consider “LTQRNTCITGGPFWFFFFFFCLLVFSLPPSLKLFPTLPRITCLFSHVFFFFFP”, for which the “transcriptional activation domain activity” value was 15700.

As for “MYYIIISYDYFLIILIPIIDTCYPFKDFCIIFFIYPLLLHYAIFYYLRLVFIY”, the “transcriptional activation domain activity” value is 45100.

As for “HAQPRAGDSTRPQESASSSDRPADASGEGGGISKKKKAKRSAAKEEGAGAEDP”, the “transcriptional activation domain activity” value was 37300.

“MFVVLAMLLVILVVIFIFVIFVLIVLIFVILVMLLMLFFILIVIIAVIVLFFF”: the “transcriptional activation domain activity” value worked out at 16700.

Turning to “MGFKDFPFVDFAVFFFFFFSPFFSSMFILSFIYLFWFDLGIGLVGVLLFFFCH”, the “transcriptional activation domain activity” value came out at 47500.

Turning to “IIVICSVALYKVVSITGVGLVCLLLAGYLCFFNLFCSNVIRLSLLFLPINARP”, the “transcriptional activation domain activity” value was found to be 58000.

“MPLSPPLYFIVFLYLQFQLYAYFICYFYILLSFYSSTHPVLSFYPLYYPFYLL”: the “transcriptional activation domain activity” value was 61300.

On to “MMFETHFWSLSSLLLFFFSFFLFLSLYLGVSILFFQFPFPFPFPFPFFFYLFL”, for which the “transcriptional activation domain activity” value worked out at 39500.

For “GILVLLLVYSNLVLLIYHPPTSKRPLDHLFIHVPIRLFLILPLSLMFPYSLLY”, the “transcriptional activation domain activity” value stood at 43900.

“GRKPAAKPTPRNSSTTARGRKAKSEPESEDDKPLAKKGGAAATKQTKKPAVKK”: the “transcriptional activation domain activity” value amounted to 22300.

Turning to “MVPLRSFPILYALCKVLLFITILLLLIVFVCLGLQHCLLFVGCWLCVQIWCGG”, the “transcriptional activation domain activity” value came out at 23300.

In the case of “KPTNQTEFDWQVFQQQAFLQQQLAQHNLQAYLSSLNTDTMTNRSPSKSSSIST”, the “transcriptional activation domain activity” value is 66300.

For the sequence “MSFFWDTSLCACVTRIREMSFWEFLVGLAFFFFFLVKGSCICVACFFFFFFWS”, the “transcriptional activation domain activity” value turned out to be 34200.

Consider “LFLFLCLFSPPINNPPFSSLIGEFLPLILSSWFYSFLISVWWNRWEKAFSWWL”, for which the “transcriptional activation domain activity” value was 33800.

On to “LFFLSFFLGLFLFFFSLSLLLVPSSFFFLVFCLFLSFFFILSFFPRFLFFFFF”, for which the “transcriptional activation domain activity” value was 39700.

In the case of “FFCSLFVSPVTLFFIFYSYCKRSFAISLLLMITIYWSFLLGLTASILVYRIWL”, the “transcriptional activation domain activity” value worked out at 57500.

“GKRAGAKGKKEASKKKKSQGSSRKGSGKGKKGNGGKGKNGGGKDKGKKSGKKG”: the “transcriptional activation domain activity” value turned out to be 21800.

In the case of “YGFGGFLSVPLLFFIAFEFPRLHSLLYQLYLFVCVWSWAYYSTIIMFSCHFYP”, the “transcriptional activation domain activity” value is 57500.

As to “MIVFSPISFVGTLWVVSCCLFFKFPLPLPFPLPLPFFFFVSLFFLYLSRKIRA”, the “transcriptional activation domain activity” value is 28200.

In the case of “EREVRDEERTRRNREKRNRKKGKGGKGGKEDGGAGGGGGGGNVKARVGMVGDG”, the “transcriptional activation domain activity” value is 15100.

“QPSAFGQTNTATNAFGQPQQQSAFGSTPTTGAFGSTNTAFGQNRPAFGSTTTP”: the “transcriptional activation domain activity” value stood at 23600.

For “MPRPFSFFFSFLLFLLFFFSIFFIFLFLLFFFLVKGIWTTYKYVLVTCLYLVI”, the “transcriptional activation domain activity” value worked out at 32700.

For “MSSGFSWSTCSFFFFFFFFLLLLLLLFFWFFLFGLSWRDSLVFFPFFFFLSLF”, the “transcriptional activation domain activity” value was 17800.

For “FREELVHFFKDPNFDPKLAFESSSYIVNHVLKLTLVMWRYLLVKVEHSFLIAM”, the “transcriptional activation domain activity” value stood at 59800.

As to “YTTPQFAGMWSQLVEWQWLVIEKFLDILLNMLYLLHGMSYIWGNLFLPYFRLV”, the “transcriptional activation domain activity” value came out at 53600.

Regarding “IVITCLPVTLLLFGKMVDVLDDYYLGIFELVLLFFAFYIFPIFYIFARVILLV”, the “transcriptional activation domain activity” value stood at 53800.
